# In patent US6458927B1, “Polypeptide with appetite regulating activity” (Novo Nordisk A/S, priority 1997, dated 2002):
# Tested on: Mice
# Test: Test method for measuring appetite suppression in mice (milk consumption after ICV injection)
# Format: in vivo
# Conditions: for % Feeding Suppression: food deprived, milk consumption over 10 minutes, 30 min after injection, percent reduction relative to control mean
# Description: Mice were deprived of their normal feed for two days and given free access to a solution of nutritionally complete infant formula milk (Complan®) for the first day, after which food deprivation was complete for the last day before testing. After one day of food deprivation, mice were injected intra-cerebroventricularly (ICV) in the lateral ventricle with 10 microliters of a solution containing the test substance. Thirty minutes after injection, mice were individually placed in a 15×15×15 cm test box with a stainless steel grid floor and a glass drinking tube which projected into the box. The drinking tube was connected to a reservoir containing the formula milk solution, and the interior of the drinking tube contained an electrode enabling the detection of drinking contacts with the solution by measuring the flow of a weak (unnoticeable) electric current through mice by means of an electronic apparatus connected to the drinking tube electrode and the stainless steel grid floor. Consumption of the milk solution was measured over a 10 minutes period by electronically recording the total amount of contact with the milk solution during the test session. The degree of appetite suppression produced by a given test substance was determined by statistical comparison of the duration of milk consumption by control (vehicle treated) mice with that of mice treated with a test substance. The degree of appetite suppression in a treated group of mice was expressed as percent reduction of consumption relative to the mean of the control group's response.
molecule,measurement,setting,value
"Ala-Leu-Asp-Ile-Tyr-Ser-Ala-Val-Asp-Asp-Ala-Ser-His-Glu-Lys-Glu-Leu-Ile- Glu-Ala-Leu-Gln-Glu-Val-Leu-Lys-Lys-Leu-Lys-Ser-Lys-Arg-Ile-Pro-Ile-Tyr- … (protein, recombinant rat CART fragment 10-89 from FXa digest of thioredoxin-CART fusion (E. coli)) ALDIYSAVDDASHEKELIEALQEVLKKLKSKRIPIYEKKYGQVPMCDAGEQCAVRKGARIGKLCDCPRGTSCNSFLLKCL",% Feeding Suppression,ICV dose 1 microgram,41%
same,% Feeding Suppression,ICV dose 2 micrograms,70%
same,% Feeding Suppression,ICV dose 5 micrograms,71%
same,% Feeding Suppression,ICV dose 10 micrograms,59%
same,% Feeding Suppression,ICV dose 20 micrograms,78%
same,"suppression of milk consumption (statistical significance, in words)","intra-cerebroventricular injection in phosphate buffered saline, over the dose range tested for the substance",statistically significant suppression of milk consumption
